Data reported in doi:10.1101/2021.12.24.474084 (bioRxiv, 2021).

B1: XGv289 monoclonal antibody (antibody, V domains shown)
VH: QVQLVQSGAEVKKPGASLKVSCRASGYTFTSHFIHWVRQAPGQGLEWMGIINPSGGASYAQNFRDRVTMTTDPSTSTVYMELGSLRSEDTAVYYCARAEGSSWLGWFDPWGQGTLVTVSS
VL: SVLTQPPSASGTPGQRVTIPCSGSSSNIGNNYVYWYQQLPGTAPKLLVYGNNQRPSGVPDRFSVSKSGTSASLAISGLRSEDEADYYCAAWDDGLSGSGWVFGGGTKLTVL
B2: XGv347 monoclonal antibody (antibody, V domains shown)
VH: QMQLVQSGPEVKKPGTSVKVSCKASGFTFTDVSSLQWVRQARGQRLEWIGWTVVGTGNTNYAPRFQERVTITTDKSTSTAYMELSSLRSEDTAVYYCAAPFCSETSCSDGFDLWGQGTKVTVS
VL: EIVLTQSPGTLSLSPGDRATLSCRASQSVRISYLAWYQQKPGQAPRLLISGSSSRATGIPDRFSASGSGTDFTLTISRLEPEDFAVYYCQQYANSPWTFGQGTKVEV
B3: XGv265 monoclonal antibody (antibody, V domains shown)
VH: QITLKESGPTLVKPTQTLTLTCNFSGFSLNTYGVGVGWIRQPPGKALEWLALIYWDGDERYGPFFKNKVTIAKDTSKNQVVLTMTNMDPVDTATYYCARHLIPTIFDYWGQGTLVTVSS
VL: ALTQPASVSGSPGQSITISCTGTSSDVGGSNYVSWYQHHPDRAPKLLIYEVTNRPSGVSNRFSGSKSANTASLTISGLQAEDEADYYCSSYTTTSTHILFGGGTKLTV
B4: XGv282 monoclonal antibody (antibody, V domains shown)
VH: VQLVQSGAEVKKPGSSVKVSCKASGDTFSSYTFSWVRQAPGQGLEWMGRSIPIVGKAIYAQEFQGRVTISADRSTTTVYMELSSLRSDDTAVYYCARDQSGFDFFYYDHWGQGTLVAV
VL: QSVLTQPPSASGTPGQRVTISCSGSGSNIGSNTINWYQQLPGTAPKVLIYRNNERPSGVPDRFSGSKSGTSASLTISGLQSEDEAYYHCAAWDDSLNGPVFGGGTKLTVL

The binders below were run against SARS-CoV-2 wild-type receptor binding domain (RBD) (ACROBiosystems, Cat No. SPD-C52H3) (SARS-CoV-2 wild-type (MN908947), UniProt P0DTC2) (assay: BLI).
B1: binds. B2: binds. B3: binds. B4: binds.
